For 2 molecules, binding result and Kd results are on record in patent publication US20240366624A1 (WASHINGTON UNIVERSITY, published 2024).

As a reminder, the Kd is a measure of binding affinity in units of concentration.

Test [1] has as its target T1, human platelet PDI (protein disulfide isomerase) (human, UniProt P07237 18-508).
T1 construct: Immunoprecipitated with biotinylated polyclonal anti-PDI antibodies
Description: immunoprecipitation of PDI from lysates of resting and thrombin-treated human platelets, immunoblot with anti-ERO1α, densitometry. Here is the method: FIG. 1(A-D) is an exemplary embodiment of PDI interacting with ERO1α in platelets in accordance with the present disclosure. Human platelets were treated with or without thrombin for 5 minutes and immunoprecipitated with biotinylated polyclonal anti-PDI antibodies or control IgG. After trypsin digestion, mass spectrometric analysis was conducted. […] FIG. 1B: Examples of the identification of the tryptic peptides […] (SEQ ID NO: 1) and […] (SEQ ID NO: 2) from ERO1α in which the parent ion is observed at 521.77 and 753.37 m/z, respectively, and the parent ion mass error is 4.3 and 3.5 ppm, respectively. FIG. 1C: The peptide sequences of ERO1α that were detected after trypsin digestion. FIG. 1D: After immunoprecipitation with antibodies, the bound fraction was immunoblotted with the indicated antibodies, followed by densitometry (the band density of ERO1a/that of PDI). The data represent the mean±SD (n=3). P value determined by unpaired Student's t-test.

The target of test [2] is T2, human platelet STIM1 (stromal interaction molecule 1) (human, UniProt Q13586 23-685).
T2 construct: Co-immunoprecipitated with ERO1α
Description: co-immunoprecipitation of ERO1α from lysates of resting and thrombin-activated human platelets, mass spectrometry; volcano plot thrombin versus no thrombin.

Test [3] concerns the target T3, human platelet SERCA2 (sarco/endoplasmic reticulum Ca2+ ATPase 2) (human, UniProt P16615 1-1042, limits assumed).
T3 construct: Co-immunoprecipitated with ERO1α
Described as above.

For test [4], the target named is T4, recombinant human ERO1α (endoplasmic reticulum oxidoreductase 1α), wild type (human, UniProt Q96HE7 24-468, biotinylated when coupled to the bio-layer interferometry biosensor (site not stated)).
T4 construct: also called wtERO1α; biotinylated ERO1α
T4 sequence (looked up): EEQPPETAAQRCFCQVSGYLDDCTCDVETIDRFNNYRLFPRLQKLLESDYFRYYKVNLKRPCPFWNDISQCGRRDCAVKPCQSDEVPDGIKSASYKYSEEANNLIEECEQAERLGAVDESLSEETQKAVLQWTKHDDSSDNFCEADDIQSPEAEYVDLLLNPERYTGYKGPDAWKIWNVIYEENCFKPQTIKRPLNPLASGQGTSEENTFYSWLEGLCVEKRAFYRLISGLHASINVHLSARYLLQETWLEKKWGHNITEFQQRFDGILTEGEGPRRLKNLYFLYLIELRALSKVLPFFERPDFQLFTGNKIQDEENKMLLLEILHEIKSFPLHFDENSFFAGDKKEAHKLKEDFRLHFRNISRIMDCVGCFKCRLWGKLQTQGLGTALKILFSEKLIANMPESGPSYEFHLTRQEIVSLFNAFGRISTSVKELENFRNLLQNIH
Description: bio-layer interferometry, biotinylated ERO1α on the biosensor, STIM1 in solution. An excerpt: PDI is reported to localize in the DTS of platelets. […] It is reported that deletion of platelet STIM1 reduces Ca²⁺ store content in the DTS and SOCE. Thus, ERO1α regulation of STIM1 function was investigated. Bio-layer interferometry was first performed using a biosensor coupled with biotinylated ERO1α and a different concentration of WT or mutant STIM1 in which Cys49 and Cys56 residues were mutated to Ser49 and Ser56 (mutant STIM1 [mSTIM1]-Cys49/56Ser).
In general terms: In BLI a coated tip is dipped into the sample, and binding shifts an interference pattern.

T1 sequence (P07237 18-508 limits assumed): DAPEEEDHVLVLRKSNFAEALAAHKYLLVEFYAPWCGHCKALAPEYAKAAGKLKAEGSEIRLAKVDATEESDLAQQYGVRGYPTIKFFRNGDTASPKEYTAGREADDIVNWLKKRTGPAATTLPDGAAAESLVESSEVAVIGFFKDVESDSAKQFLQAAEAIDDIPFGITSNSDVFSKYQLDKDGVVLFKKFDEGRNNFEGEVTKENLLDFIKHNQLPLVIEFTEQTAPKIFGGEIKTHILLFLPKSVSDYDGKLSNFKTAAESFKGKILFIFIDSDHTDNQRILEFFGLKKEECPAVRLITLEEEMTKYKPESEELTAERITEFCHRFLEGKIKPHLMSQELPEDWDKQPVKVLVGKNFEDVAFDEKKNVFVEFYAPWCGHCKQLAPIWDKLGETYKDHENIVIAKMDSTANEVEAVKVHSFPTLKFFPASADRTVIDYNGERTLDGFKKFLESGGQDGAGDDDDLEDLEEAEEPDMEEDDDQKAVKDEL
T3 sequence (P16615 whole entry): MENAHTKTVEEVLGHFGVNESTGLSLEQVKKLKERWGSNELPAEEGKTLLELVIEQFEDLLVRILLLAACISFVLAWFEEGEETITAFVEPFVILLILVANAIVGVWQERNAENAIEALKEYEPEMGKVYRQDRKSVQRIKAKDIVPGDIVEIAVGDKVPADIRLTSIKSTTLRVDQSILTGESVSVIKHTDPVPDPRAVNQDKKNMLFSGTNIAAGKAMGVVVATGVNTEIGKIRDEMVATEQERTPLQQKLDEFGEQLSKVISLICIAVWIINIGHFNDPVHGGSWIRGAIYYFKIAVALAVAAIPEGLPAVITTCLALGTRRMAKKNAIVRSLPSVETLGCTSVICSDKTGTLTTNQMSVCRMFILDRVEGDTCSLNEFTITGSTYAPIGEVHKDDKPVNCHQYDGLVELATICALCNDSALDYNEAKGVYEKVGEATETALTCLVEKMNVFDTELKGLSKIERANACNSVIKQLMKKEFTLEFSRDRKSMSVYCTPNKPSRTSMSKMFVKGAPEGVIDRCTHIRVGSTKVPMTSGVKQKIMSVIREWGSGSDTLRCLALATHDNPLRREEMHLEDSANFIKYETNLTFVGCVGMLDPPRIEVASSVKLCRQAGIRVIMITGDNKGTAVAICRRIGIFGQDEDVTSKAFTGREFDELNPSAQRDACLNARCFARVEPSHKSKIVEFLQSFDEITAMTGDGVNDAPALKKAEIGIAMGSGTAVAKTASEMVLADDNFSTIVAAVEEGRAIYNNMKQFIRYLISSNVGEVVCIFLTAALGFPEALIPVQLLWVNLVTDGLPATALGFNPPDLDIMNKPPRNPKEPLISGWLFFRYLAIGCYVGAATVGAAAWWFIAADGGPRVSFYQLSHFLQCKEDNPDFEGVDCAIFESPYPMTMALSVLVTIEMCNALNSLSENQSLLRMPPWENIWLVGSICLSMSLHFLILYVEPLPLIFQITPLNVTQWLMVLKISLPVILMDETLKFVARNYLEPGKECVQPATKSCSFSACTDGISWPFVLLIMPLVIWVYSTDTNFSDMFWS

B1: human platelet ERO1α (enzyme, UniProt Q96HE7 24-468, looked up)
chain: EEQPPETAAQRCFCQVSGYLDDCTCDVETIDRFNNYRLFPRLQKLLESDYFRYYKVNLKRPCPFWNDISQCGRRDCAVKPCQSDEVPDGIKSASYKYSEEANNLIEECEQAERLGAVDESLSEETQKAVLQWTKHDDSSDNFCEADDIQSPEAEYVDLLLNPERYTGYKGPDAWKIWNVIYEENCFKPQTIKRPLNPLASGQGTSEENTFYSWLEGLCVEKRAFYRLISGLHASINVHLSARYLLQETWLEKKWGHNITEFQQRFDGILTEGEGPRRLKNLYFLYLIELRALSKVLPFFERPDFQLFTGNKIQDEENKMLLLEILHEIKSFPLHFDENSFFAGDKKEAHKLKEDFRLHFRNISRIMDCVGCFKCRLWGKLQTQGLGTALKILFSEKLIANMPESGPSYEFHLTRQEIVSLFNAFGRISTSVKELENFRNLLQNIH
notes: Endogenous protein in platelet lysates (immunoprecipitation, immunoblot)
As to B1, the binding result in test [1], in test [2] and in test [3] was “binds” throughout.

B2: wild type STIM1, recombinant (other, UniProt Q13586 23-213, looked up)
chain: LSHSHSEKATGTSSGANSEESTAAEFCRIDKPLCHSEDEKLSFEAVRNIHKLMDDDANGDVDVEESDEFLREDLNYHDPTVKHSTFHGEDKLISVEDLWKAWKSSEVYNWTVDEVVQWLITYVELPQYEETFRKLQLSGHAMPRLAVTNTTMTGTVLKMTDRSHRQKLQLKALDTVLFGPPLLTRHNHLKD
notes: also called wtSTIM1; WT STIM1
For the molecule B2, the Kd in test [4] was found to be 2600 nM.
